# Target: T1, FcγRIIIa extracellular domain with C-terminal His tag (human, UniProt P08637 17-208)
# T1 construct: extracellular domain; also called FcgRIIIa; 3a
# Test: SPR, relative to GpH7-A5/GpH7-B3/GpL16-k0
# T1 sequence (P08637 17-208): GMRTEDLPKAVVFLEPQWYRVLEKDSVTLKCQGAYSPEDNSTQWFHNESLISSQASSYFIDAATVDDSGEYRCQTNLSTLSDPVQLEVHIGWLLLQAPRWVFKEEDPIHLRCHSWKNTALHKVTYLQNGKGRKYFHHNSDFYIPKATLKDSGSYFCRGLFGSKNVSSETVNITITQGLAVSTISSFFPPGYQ
row,Binder,He/Con_3a
1,"GpH7-A5/GpH7-B3 variant I332_02A/GpL16-k0 (antibody, human IgG1, kappa, heterodimerized IgG1, mutation in one H chain only; also called He Ab) heavy 1: not shown heavy 2: not shown light: DIVMTQSPLSLPVTPGEPASISCQASESLVHSNRNTYLHWYLQKPGQSPQLLIYKVSNRFSGVPDRFSGSGSGTDFTLKISRVEAEDVGVYYCSQNTHVPPTFGQGTKVEIERTVAAPSVFIFPPSDEQLKSGTASVVCLLNNFYPREAKVQWKVDNALQSGNSQESVTEQDSKDSTYSLSSTLTLSKADYEKHKVYACEVTHQGLSSPVTKSFNRGEC",112 % of control (=100)
2,"GpH7-A5/GpH7-B3 variant I332_01G/GpL16-k0 (antibody, human IgG1, kappa, heterodimerized IgG1, mutation in one H chain only; also called He Ab) heavy 1: not shown heavy 2: not shown light: DIVMTQSPLSLPVTPGEPASISCQASESLVHSNRNTYLHWYLQKPGQSPQLLIYKVSNRFSGVPDRFSGSGSGTDFTLKISRVEAEDVGVYYCSQNTHVPPTFGQGTKVEIERTVAAPSVFIFPPSDEQLKSGTASVVCLLNNFYPREAKVQWKVDNALQSGNSQESVTEQDSKDSTYSLSSTLTLSKADYEKHKVYACEVTHQGLSSPVTKSFNRGEC",111 % of control (=100)
3,"GpH7-A5/GpH7-B3 variant H268_13S/GpL16-k0 (antibody, human IgG1, kappa, heterodimerized IgG1, mutation in one H chain only; also called He Ab) heavy 1: not shown heavy 2: not shown light: DIVMTQSPLSLPVTPGEPASISCQASESLVHSNRNTYLHWYLQKPGQSPQLLIYKVSNRFSGVPDRFSGSGSGTDFTLKISRVEAEDVGVYYCSQNTHVPPTFGQGTKVEIERTVAAPSVFIFPPSDEQLKSGTASVVCLLNNFYPREAKVQWKVDNALQSGNSQESVTEQDSKDSTYSLSSTLTLSKADYEKHKVYACEVTHQGLSSPVTKSFNRGEC",122 % of control (=100)
4,"GpH7-A5/GpH7-B3 variant I332_13S/GpL16-k0 (antibody, human IgG1, kappa, heterodimerized IgG1, mutation in one H chain only; also called He Ab) heavy 1: not shown heavy 2: not shown light: DIVMTQSPLSLPVTPGEPASISCQASESLVHSNRNTYLHWYLQKPGQSPQLLIYKVSNRFSGVPDRFSGSGSGTDFTLKISRVEAEDVGVYYCSQNTHVPPTFGQGTKVEIERTVAAPSVFIFPPSDEQLKSGTASVVCLLNNFYPREAKVQWKVDNALQSGNSQESVTEQDSKDSTYSLSSTLTLSKADYEKHKVYACEVTHQGLSSPVTKSFNRGEC",104 % of control (=100)
5,"GpH7-A5/GpH7-B3 variant I332_09D/GpL16-k0 (antibody, human IgG1, kappa, heterodimerized IgG1, mutation in one H chain only; also called He Ab) heavy 1: not shown heavy 2: not shown light: DIVMTQSPLSLPVTPGEPASISCQASESLVHSNRNTYLHWYLQKPGQSPQLLIYKVSNRFSGVPDRFSGSGSGTDFTLKISRVEAEDVGVYYCSQNTHVPPTFGQGTKVEIERTVAAPSVFIFPPSDEQLKSGTASVVCLLNNFYPREAKVQWKVDNALQSGNSQESVTEQDSKDSTYSLSSTLTLSKADYEKHKVYACEVTHQGLSSPVTKSFNRGEC",207 % of control (=100)

# Now from value to binder:
row,He/Con_3a,Binder
1,111 % of control (=100),"GpH7-A5/GpH7-B3 variant I336_02A/GpL16-k0 (antibody, human IgG1, kappa, heterodimerized IgG1, mutation in one H chain only; also called He Ab) heavy 1: not shown heavy 2: not shown light: DIVMTQSPLSLPVTPGEPASISCQASESLVHSNRNTYLHWYLQKPGQSPQLLIYKVSNRFSGVPDRFSGSGSGTDFTLKISRVEAEDVGVYYCSQNTHVPPTFGQGTKVEIERTVAAPSVFIFPPSDEQLKSGTASVVCLLNNFYPREAKVQWKVDNALQSGNSQESVTEQDSKDSTYSLSSTLTLSKADYEKHKVYACEVTHQGLSSPVTKSFNRGEC"
2,109 % of control (=100),"GpH7-A5/GpH7-B3 variant I336_06M/GpL16-k0 (antibody, human IgG1, kappa, heterodimerized IgG1, mutation in one H chain only; also called He Ab) heavy 1: not shown heavy 2: not shown light: DIVMTQSPLSLPVTPGEPASISCQASESLVHSNRNTYLHWYLQKPGQSPQLLIYKVSNRFSGVPDRFSGSGSGTDFTLKISRVEAEDVGVYYCSQNTHVPPTFGQGTKVEIERTVAAPSVFIFPPSDEQLKSGTASVVCLLNNFYPREAKVQWKVDNALQSGNSQESVTEQDSKDSTYSLSSTLTLSKADYEKHKVYACEVTHQGLSSPVTKSFNRGEC"
3,101 % of control (=100),"GpH7-A5/GpH7-B3 variant I332_15Y/GpL16-k0 (antibody, human IgG1, kappa, heterodimerized IgG1, mutation in one H chain only; also called He Ab) heavy 1: not shown heavy 2: not shown light: DIVMTQSPLSLPVTPGEPASISCQASESLVHSNRNTYLHWYLQKPGQSPQLLIYKVSNRFSGVPDRFSGSGSGTDFTLKISRVEAEDVGVYYCSQNTHVPPTFGQGTKVEIERTVAAPSVFIFPPSDEQLKSGTASVVCLLNNFYPREAKVQWKVDNALQSGNSQESVTEQDSKDSTYSLSSTLTLSKADYEKHKVYACEVTHQGLSSPVTKSFNRGEC"
4,106 % of control (=100),"GpH7-A5/GpH7-B3 variant I336_09D/GpL16-k0 (antibody, human IgG1, kappa, heterodimerized IgG1, mutation in one H chain only; also called He Ab) heavy 1: not shown heavy 2: not shown light: DIVMTQSPLSLPVTPGEPASISCQASESLVHSNRNTYLHWYLQKPGQSPQLLIYKVSNRFSGVPDRFSGSGSGTDFTLKISRVEAEDVGVYYCSQNTHVPPTFGQGTKVEIERTVAAPSVFIFPPSDEQLKSGTASVVCLLNNFYPREAKVQWKVDNALQSGNSQESVTEQDSKDSTYSLSSTLTLSKADYEKHKVYACEVTHQGLSSPVTKSFNRGEC"
5,104 % of control (=100),"GpH7-A5/GpH7-B3 variant I336_18N/GpL16-k0 (antibody, human IgG1, kappa, heterodimerized IgG1, mutation in one H chain only; also called He Ab) heavy 1: not shown heavy 2: not shown light: DIVMTQSPLSLPVTPGEPASISCQASESLVHSNRNTYLHWYLQKPGQSPQLLIYKVSNRFSGVPDRFSGSGSGTDFTLKISRVEAEDVGVYYCSQNTHVPPTFGQGTKVEIERTVAAPSVFIFPPSDEQLKSGTASVVCLLNNFYPREAKVQWKVDNALQSGNSQESVTEQDSKDSTYSLSSTLTLSKADYEKHKVYACEVTHQGLSSPVTKSFNRGEC"
6,122 % of control (=100),"GpH7-A5/GpH7-B3 variant K326_03V/GpL16-k0 (antibody, human IgG1, kappa, heterodimerized IgG1, mutation in one H chain only; also called He Ab) heavy 1: not shown heavy 2: not shown light: DIVMTQSPLSLPVTPGEPASISCQASESLVHSNRNTYLHWYLQKPGQSPQLLIYKVSNRFSGVPDRFSGSGSGTDFTLKISRVEAEDVGVYYCSQNTHVPPTFGQGTKVEIERTVAAPSVFIFPPSDEQLKSGTASVVCLLNNFYPREAKVQWKVDNALQSGNSQESVTEQDSKDSTYSLSSTLTLSKADYEKHKVYACEVTHQGLSSPVTKSFNRGEC"

# — patent US20180155451A1 (published 2018)
